Tested on: primary HBE cells from healthy non-CF donors
Test: μOCT of MCT rate and CBF in non-CF primary HBE cells
Assay type: cell-based, human
Excerpt: Primary human bronchial epithelial (HBE) cells were derived from lung explants from healthy failed donors and CF patients homozygous for F508del CFTR. […]
One-micron resolution spectral domain μOCT was used to obtain measurements of mucociliary transport (MCT) rate and ciliary beat frequency (CBF) in HBE monolayers and of MCT rate of sputum ex vivo. This first-in-kind, high-speed (40 frames per second, 512 lines per frame) microscopic reflectance imaging modality enables simultaneous anatomic imaging in cell cultures and intact tissues that readily distinguishes the properties of CF compared to normal epithelia (Liu L, Chu K K, Houser G H, Diephuis B J, Li Y, Wilsterman E J, Shastry S, Dierksen G, Birket S E, Mazur M, et al., 2013, Method for quantitative study of airway functional microanatomy using micro-optical coherence tomography, PLoS One 8(1):e54473; Tuggle K L, Birket S E, Cui X, Hong J, Warren J, Reid L, Chambers A, Ji D, Gamber K, Chu K K, et al., 2014, Characterization of defects in ion transport and tissue development in Cystic Fibrosis Transmembrane Conductance Regulator (CFTR)-knockout rats. […] Images were captured, and MCT rate and CBF calculated, as described in the preceding references.

B1: ORP100S: thioredoxin with monothiol active site, Cys35 and non-active Cys 62, 69 and 73 substituted with serine (SEQ ID NO:29) (protein)
chain: MVKQIESKTAFQEALDAAGDKLVVVDFSATWCGPSKMIKPFFHSLSEKYSNVIFLEVDVDDSQDVASESEVKSMPTFQFFKKGQKVGEFSGANKEKLEATINELV
modifications: synthetic peptide motif
3 hrs post treatment
  CBF: no meaningful differences
3 hrs post-treatment, ORP100S 1-3 mM, DTT 1.6 mM, PBS 0.05±0.007, mean±SE
  MCT rate: 2.18±0.3 mm/min
